In experiment [1] the target is T1, human CD28 (human, UniProt P10747 19-220).
T1 construct: whole, on cells; also called CD28 receptor; CD28 CHO cells
Kind of experiment: cell-based or functional assay.

Experiment [2] has as its target T2, L6 antigen (human, UniProt P30408 1-202).
T2 construct: whole, on cells; also called tumor associated antigen L6; L6 molecule
T2 sequence (looked up): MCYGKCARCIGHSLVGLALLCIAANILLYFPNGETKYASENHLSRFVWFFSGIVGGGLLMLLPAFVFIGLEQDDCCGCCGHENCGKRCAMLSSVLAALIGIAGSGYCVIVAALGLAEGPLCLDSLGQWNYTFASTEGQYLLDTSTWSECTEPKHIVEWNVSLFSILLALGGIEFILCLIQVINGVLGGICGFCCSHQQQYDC
Nature of the experiment: flow cytometry on L6 positive H2981 tumor cells.

In experiment [3] the target is T1, human CD28. Kind of experiment: flow cytometry on CD28 CHO cells, FITC anti-human IgG. The procedure:
(§1) FIGS. 15a/b/c are line graphs showing that the bispecific 9.3/L6 sFvIg fusion protein binds to L6+ H2981 tumor cells and to CD28+ CHO cells. Panel 15A: L6+ H2981 tumor cells were incubated with L6 sFvIg ( - - - - ) at 0.5 μg/ml or 9.3 sFvIg ( . . . . ) at 0.5 μg/ml or 9.3/L6 sFvIg (_____) fusion protein at 0.5 μg/ml or with medium alone ( . . . . ). Panel 15B: CD28 CHO cells were incubated with 9.3 sFvIg ( - - - - ) at 1 μg/ml or 9.3/L6 sFvIg fusion protein (_____) at 1 μg/ml, or with medium alone ( . . . . ). Bound protein was detected with FITC conjugated goat anti-human IgG at 1:100. Panel 15C: CD28+ PHA blasts were incubated with FITC conjugated L6 α-idiotype mAb 13B ( . . . . ) as negative control, bispecific 9.3/L6 sFvIg at 0.5 μg/ml and bound protein detected with FITC conjugated L6 α-idiotypic mAb 13B ( - - - - ). Preincubation of cells with unlabelled 9.3 sFvIg inhibited binding of bispecific 9.3/L6 sFvIg as shown by a significant reduction in FITC-13B staining (_____). A total of 10,000 cells were analyzed per sample.
(§2) Binding activity of the 9.3 and 9.3/L6 sFvIg Fusion Protein: The binding of each sFvIg fusion protein was assayed by immunostaining and FACS analysis. […] 9.3 sFvIg and 9.3/L6 sFvIg were incubated with CD28 CHO cells and binding was detected using FITC anti-human IgG as shown in FIG. 15B. […]
For orientation: Flow cytometry measures light scatter and fluorescence of single cells or particles in a stream.

The target in experiment [4] is T2, L6 antigen. Nature of the experiment: flow cytometry on L6 positive H2981 tumor cells, FITC anti-human IgG. The procedure:
as §1, §2

Some results are limits rather than exact numbers.

On to 9.3 monoclonal antibody, for which, in the experiment with human CD28 [1], the 3H-Thymidine incorporation, + blasts; 9.3 mAb stood at 58800 and the 3H-Thymidine incorporation, + blasts; 9.3 mAb + 187.1 Ab was 98300.
In the experiment with human CD28 [1], “bispecific 9.3/L6 sFvIg fusion protein (bispecific antibody)” came in with a [3H]-thymidine incorporation of PHA blasts, 9.3/L6 at 0.05 µg/ml, +H3347 of 97800 cpm; a [3H]-thymidine incorporation of PHA blasts, 9.3/L6 at 0.05 µg/ml, no H3347 cells of 4000 cpm; a [3H]-thymidine incorporation of PHA blasts, 9.3/L6 at 0.1 µg/ml, +H3347 of 115000 cpm; a [3H]-thymidine incorporation of PHA blasts, 9.3/L6 at 0.1 µg/ml, no H3347 cells of 9600 cpm. In the experiment with human CD28 [1], this molecule came in with a [3H]-thymidine incorporation of PHA blasts, 9.3/L6 at 0.5 µg/ml, +H3347 of 145000 cpm; a [3H]-thymidine incorporation of PHA blasts, 9.3/L6 at 0.5 µg/ml, no H3347 cells of 69200 cpm; a [3H]-thymidine incorporation of PHA blasts, untransfected H3347 preincubated with 9.3/L6 at 1 µg/ml, cells washed 3× of 98000 cpm; a proliferation of T cell blasts with 9.3/L6 sFvIg alone (FIG. 16) greater than 0.1 µg/mL. This molecule also returned a concentration of native L6 antibody that gives the same staining as 1 µg/ml of the fusion protein with L6 antigen [2] of 0.5 µg/mL.

B1: 9.3 sFvIg (scFv, not shown: small tags and cut ends)
scFv: DIVLTQSPASLAVSLGQRATISCRASESVEYYVTSLMQWYQQKPGQPPKLLIFAASNVESGVPARFSGSGSGTNFSLNIHPVDEDDVAMYFCQQSRKVPYTFGGGTKLEIKRASGGGGSGGGGSGGGGSLAQVQLKESGPGLVTPSQSLSITCTVSGFSLSDYGVHWVRQSPGQGLECLGVIWAGGGTNYNSALMSRKSISKDNSKGQVFLKMKSLQADDTAVYYCARDKGYSYYYSMDYWGQGTSVTVSS
notes: Anti-human CD28 sFv of mouse mAb 9.3 fused to human Ig; from COS or CHO cells; also called 9.3 sFvIg fusion protein; monospecific 9.3 sFvIg
As to B1, the binding result is “binds” with human CD28 [3] and “no binding (tested: 1 µg/ml)” with L6 antigen [4].

The record behind these values is patent US6699715 (Bristol-Myers Squibb, dated 2004).
